Reference: US20150307627A1 (BAC IP B V, published 2015)

Tests used:
[1] = molecular target: T1, HuIgG2 (human, UniProt P01859-1 1-326 = IgG part); assay: SPR, VHH immobilised, 1:1 Langmuir fit
T1 construct: Purified human IgG of subclass 2; also called Human-IgG2
Procedure: (§1) Binding affinity constants of anti IgG-Fc VHH fragments were determined using surface plasmon resonance analysis (SPR) on a BiaCore 3000. For this purpose, purified VHH fragments were immobilised onto the surface of a CM5 sensor chip and subsequently incubated with different concentrations of purified IgG antibodies in HBS-EP buffer. Binding was allowed for 3 minutes at 30 μl/min followed by a dissociation step of 15 minutes at 30 μl/min Binding curves were fitted according to a 1:1 Langmuir binding model using Biacore software.

[2] = molecular target: T2, HuIgG3 (human, UniProt P01860-1 1-377); assay: SPR, VHH immobilised, 1:1 Langmuir fit
T2 construct: Purified human IgG of subclass 3; also called Human-IgG3
T2 sequence (P01860 other isoform, or with tags, fused parts or gaps): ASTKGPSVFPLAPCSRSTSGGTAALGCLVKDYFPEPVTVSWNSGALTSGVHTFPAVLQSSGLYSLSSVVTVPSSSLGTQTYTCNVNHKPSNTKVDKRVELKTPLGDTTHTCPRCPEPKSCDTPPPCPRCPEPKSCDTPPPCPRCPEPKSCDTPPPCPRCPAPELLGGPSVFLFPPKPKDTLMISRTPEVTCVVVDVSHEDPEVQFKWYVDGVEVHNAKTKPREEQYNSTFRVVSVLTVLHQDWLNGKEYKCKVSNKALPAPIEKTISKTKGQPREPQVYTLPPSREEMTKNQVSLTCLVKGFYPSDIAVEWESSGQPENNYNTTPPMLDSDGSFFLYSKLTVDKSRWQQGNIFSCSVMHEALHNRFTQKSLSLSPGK
Procedure: as §1

[3] = molecular target: T3, Human IgG; assay: SPR, VHH immobilised, 1:1 Langmuir fit
T3 construct: also called HuIgG; human IgG-Fc domains
Procedure: as §1

[4] = molecular target: T4, HuIgG4 (human, UniProt P01861-1 1-327 = IgG part); assay: SPR, VHH immobilised, 1:1 Langmuir fit
T4 construct: Purified human IgG of subclass 4; also called Human-IgG4
T4 sequence (P01861 other isoform, or with tags, fused parts or gaps): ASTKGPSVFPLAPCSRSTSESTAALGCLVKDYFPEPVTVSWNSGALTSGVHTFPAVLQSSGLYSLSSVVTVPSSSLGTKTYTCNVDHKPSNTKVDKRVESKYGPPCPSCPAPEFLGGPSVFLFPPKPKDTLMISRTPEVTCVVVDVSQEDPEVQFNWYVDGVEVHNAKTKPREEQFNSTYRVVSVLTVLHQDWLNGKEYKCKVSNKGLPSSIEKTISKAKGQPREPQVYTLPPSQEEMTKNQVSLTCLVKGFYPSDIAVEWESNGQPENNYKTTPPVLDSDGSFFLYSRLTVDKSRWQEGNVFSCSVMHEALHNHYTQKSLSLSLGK
Procedure: as §1

[5] = molecular target: T5, HuIgG1 (human, UniProt P01857-1 1-330 = IgG part); assay: SPR, VHH immobilised, 1:1 Langmuir fit
T5 construct: Purified human IgG of subclass 1; also called Human-IgG1
T5 sequence (P01857 other isoform, or with tags, fused parts or gaps): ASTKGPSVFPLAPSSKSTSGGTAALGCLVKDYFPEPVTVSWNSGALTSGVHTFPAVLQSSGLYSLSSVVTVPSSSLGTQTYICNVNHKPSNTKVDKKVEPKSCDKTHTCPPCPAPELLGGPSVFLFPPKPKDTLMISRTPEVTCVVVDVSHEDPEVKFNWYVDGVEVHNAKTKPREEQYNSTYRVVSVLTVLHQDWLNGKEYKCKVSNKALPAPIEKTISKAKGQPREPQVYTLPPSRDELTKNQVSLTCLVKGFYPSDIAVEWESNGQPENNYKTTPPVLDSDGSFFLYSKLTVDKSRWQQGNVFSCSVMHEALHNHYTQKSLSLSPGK
Procedure: as §1

[6] = molecular target: T3, Human IgG; assay: affinity chromatography, VHH on NHS-Sepharose, 150 cm/h
Procedure: The dynamic binding capacity (DBC) of the IgG-Fc domain binding VHH fragments immobilized onto NHS sepharose was tested. 10 ml of 1.0 mg/ml human IgG in PBS pH 7.4 was loaded on a 400 μl column with a linear flow of 150 cm/h. After the washing with 10 column volumes PBS pH 7.4, the column was eluted with 0.1 M glycine buffer pH 3.0. Based on integration of the OD280 signal of the flow through and elution peak, the dynamic binding capacity of the column was calculated (Table 11).

[7] = molecular target: T3, Human IgG; assay: method not given
Procedure: as §1

[8] = molecular target: T6, Bovine IgG; assay: SPR, VHH immobilised, 1:1 Langmuir fit
T6 construct: also called IgG-Fc from bovine
Procedure: as §1

[9] = molecular target: T7, Mouse IgG; assay: SPR, VHH immobilised, 1:1 Langmuir fit
T7 construct: also called IgG-Fc from mouse
Procedure: as §1

[10] = molecular target: T8, Guinea pig IgG; assay: SPR, VHH immobilised, IgG 50 µg/ml
T8 construct: also called Guinea IgG; IgG-Fc from guinea pig
Procedure: (§2) Broad binding reactivity of VHH fragment IgG-Fc-16 was determined using surface plasmon resonance analysis (SPR) on a BiaCore 3000. For this purpose, purified VHH fragment IgG-Fc-16 was immobilised onto the surface of a CM5 sensor chip and subsequently incubated with purified IgG antibodies (50 μg/ml) from different species in HBS-EP buffer. Binding was allowed for 1 minute at 5 μl/min followed by a dissociation step of 2.5 minutes at 5 μl/min. Binding signals (Resonance Units) were compared to background signals measured with HBS-EP buffer only. For comparison, the relative reactivity of Protein A and G towards different IgG species is also given.

[11] = molecular target: T6, Bovine IgG; assay: SPR, VHH immobilised, IgG 50 µg/ml
Procedure: as §2

[12] = molecular target: T9, Cat IgG; assay: SPR, VHH immobilised, IgG 50 µg/ml
T9 construct: also called IgG-Fc from cat
Procedure: as §2

[13] = molecular target: Horse IgG; assay: SPR, VHH immobilised, IgG 50 µg/ml
Procedure: as §2

[14] = molecular target: Human IgG, Fc fragment; assay: SPR, VHH immobilised, IgG 50 µg/ml
Procedure: as §2

[15] = molecular target: T1, HuIgG2; assay: SPR, VHH immobilised, IgG 50 µg/ml
Procedure: as §2

[16] = molecular target: T10, Syrian Hamster IgG; assay: SPR, VHH immobilised, IgG 50 µg/ml
T10 construct: also called IgG-Fc from syrian hamster
Procedure: as §2

[17] = molecular target: T2, HuIgG3; assay: SPR, VHH immobilised, IgG 50 µg/ml
Procedure: as §2

[18] = molecular target: T11, Goat IgG; assay: SPR, VHH immobilised, IgG 50 µg/ml
T11 construct: also called IgG-Fc from goat
Procedure: as §2

[19] = molecular target: T3, Human IgG; assay: SPR, VHH immobilised, IgG 50 µg/ml
Procedure: as §2

[20] = molecular target: Rat IgG2c (rat, UniProt P20762 1-329); assay: SPR, VHH immobilised, IgG 50 µg/ml
Chain of Rat IgG2c (P20762 whole entry): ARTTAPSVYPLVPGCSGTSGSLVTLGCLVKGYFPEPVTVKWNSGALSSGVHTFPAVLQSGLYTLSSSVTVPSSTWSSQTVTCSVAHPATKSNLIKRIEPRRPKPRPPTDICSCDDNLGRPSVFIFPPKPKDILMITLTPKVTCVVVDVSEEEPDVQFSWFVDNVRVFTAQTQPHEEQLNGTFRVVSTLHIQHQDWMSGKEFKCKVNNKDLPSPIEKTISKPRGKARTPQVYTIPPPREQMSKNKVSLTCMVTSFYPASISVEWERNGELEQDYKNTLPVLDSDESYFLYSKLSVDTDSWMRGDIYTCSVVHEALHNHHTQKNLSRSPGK
Procedure: as §2

[21] = molecular target: Rabbit IgG; assay: SPR, VHH immobilised, IgG 50 µg/ml
Procedure: as §2

[22] = molecular target: Bovine IgG, Fab fragment; assay: SPR, VHH immobilised, IgG 50 µg/ml
Procedure: as §2

[23] = molecular target: Swine IgG; assay: SPR, VHH immobilised, IgG 50 µg/ml
Procedure: as §2

[24] = molecular target: Mouse IgG2a (mouse, UniProt P01863 1-330 = IgG part); assay: SPR, VHH immobilised, IgG 50 µg/ml
Chain of Mouse IgG2a (P01863 whole entry): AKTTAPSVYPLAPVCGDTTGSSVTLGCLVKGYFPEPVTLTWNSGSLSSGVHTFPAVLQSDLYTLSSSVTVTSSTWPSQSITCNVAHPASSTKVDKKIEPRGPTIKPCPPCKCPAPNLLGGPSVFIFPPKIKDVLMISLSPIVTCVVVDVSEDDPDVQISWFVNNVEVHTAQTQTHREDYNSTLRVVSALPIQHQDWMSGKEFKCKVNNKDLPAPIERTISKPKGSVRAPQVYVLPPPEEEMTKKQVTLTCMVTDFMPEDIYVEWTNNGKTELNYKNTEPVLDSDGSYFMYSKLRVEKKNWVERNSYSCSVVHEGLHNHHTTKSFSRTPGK
Procedure: as §2

[25] = molecular target: Bovine IgG, Fc fragment; assay: SPR, VHH immobilised, IgG 50 µg/ml
Procedure: as §2

[26] = molecular target: Mouse IgG 1 (mouse, UniProt P01868 1-324 = IgG part); assay: SPR, VHH immobilised, IgG 50 µg/ml
Procedure: as §2

[27] = molecular target: T4, HuIgG4; assay: SPR, VHH immobilised, IgG 50 µg/ml
Procedure: as §2

[28] = molecular target: Rat IgG2b (rat, UniProt P20761 1-333); assay: SPR, VHH immobilised, IgG 50 µg/ml
Chain of Rat IgG2b (P20761 whole entry): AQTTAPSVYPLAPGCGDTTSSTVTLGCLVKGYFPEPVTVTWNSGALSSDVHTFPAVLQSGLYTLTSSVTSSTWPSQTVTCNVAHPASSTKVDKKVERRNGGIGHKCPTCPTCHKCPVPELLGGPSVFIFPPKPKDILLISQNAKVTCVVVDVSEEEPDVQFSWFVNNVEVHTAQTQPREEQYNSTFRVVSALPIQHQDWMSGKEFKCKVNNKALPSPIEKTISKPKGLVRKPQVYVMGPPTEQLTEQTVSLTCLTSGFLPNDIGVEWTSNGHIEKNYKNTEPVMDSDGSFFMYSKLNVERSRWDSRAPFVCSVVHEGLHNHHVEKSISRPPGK
Procedure: as §2

[29] = molecular target: T12, Dog IgG; assay: SPR, VHH immobilised, IgG 50 µg/ml
T12 construct: also called IgG-Fc from dog
Procedure: as §2

[30] = molecular target: T13, Rat IgG; assay: SPR, VHH immobilised, IgG 50 µg/ml
T13 construct: also called IgG-Fc from rat
Procedure: as §2

[31] = molecular target: Newborn Calf IgG; assay: SPR, VHH immobilised, IgG 50 µg/ml
Procedure: as §2

[32] = molecular target: T7, Mouse IgG; assay: SPR, VHH immobilised, IgG 50 µg/ml
Procedure: as §2

[33] = molecular target: Rat IgG2a (rat, UniProt P20760 1-322); assay: SPR, VHH immobilised, IgG 50 µg/ml
Chain of Rat IgG2a (P20760 whole entry): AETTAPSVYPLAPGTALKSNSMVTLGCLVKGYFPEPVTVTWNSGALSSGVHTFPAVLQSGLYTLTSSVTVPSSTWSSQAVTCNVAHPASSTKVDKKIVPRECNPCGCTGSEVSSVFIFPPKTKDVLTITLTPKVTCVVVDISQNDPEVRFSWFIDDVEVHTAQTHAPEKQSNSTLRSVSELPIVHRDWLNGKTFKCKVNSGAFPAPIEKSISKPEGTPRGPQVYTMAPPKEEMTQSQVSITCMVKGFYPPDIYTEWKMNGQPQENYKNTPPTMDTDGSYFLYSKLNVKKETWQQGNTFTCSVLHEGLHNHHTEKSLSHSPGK
Procedure: as §2

[34] = molecular target: Rat IgG1a; assay: SPR, VHH immobilised, IgG 50 µg/ml
Procedure: as §2

[35] = molecular target: T5, HuIgG1; assay: SPR, VHH immobilised, IgG 50 µg/ml
Procedure: as §2

[36] = molecular target: Human IgG, Fab fragment; assay: SPR, VHH immobilised, IgG 50 µg/ml
Procedure: as §2

[37] = molecular target: Donkey IgG; assay: SPR, VHH immobilised, IgG 50 µg/ml
Procedure: as §2

[38] = molecular target: Foetal Calf IgG; assay: SPR, VHH immobilised, IgG 50 µg/ml
Procedure: as §2

[39] = molecular target: T14, Sheep IgG; assay: SPR, VHH immobilised, IgG 50 µg/ml
T14 construct: also called IgG-Fc from sheep
Procedure: as §2

T1 sequence (P01859 other isoform, or with tags, fused parts or gaps): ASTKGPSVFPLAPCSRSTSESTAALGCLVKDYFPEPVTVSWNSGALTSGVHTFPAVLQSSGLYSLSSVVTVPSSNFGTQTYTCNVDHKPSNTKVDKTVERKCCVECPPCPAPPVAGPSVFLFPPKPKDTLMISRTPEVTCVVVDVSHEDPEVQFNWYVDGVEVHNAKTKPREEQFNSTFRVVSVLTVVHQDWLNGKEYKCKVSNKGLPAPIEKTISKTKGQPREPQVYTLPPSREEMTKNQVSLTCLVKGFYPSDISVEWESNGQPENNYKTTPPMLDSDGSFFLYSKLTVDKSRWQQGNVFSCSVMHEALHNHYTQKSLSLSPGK

B1: IgG-Fc-10 (VHH)
VHH: QVQLQESGGGLVQAGDSLRISCRASGLTVNDLYMGWFRQAPGKEREFVGRVTPGDNTDYTYYVDSVKGRFTISRDSAKNTVYLQMNSLKLEDTAVYLCAGRRFGSSEWDYWGQGTQVTVSS
Ka [1]: 1.37e+08 M⁻¹
Kd [1]: 7.29 nM
koff [1]: 0.000889 s⁻¹
kon [1]: 122000 M⁻¹ s⁻¹
Ka [2]: 1.11e+08 M⁻¹
Kd [2]: 8.99 nM
koff [2]: 0.0014 s⁻¹
kon [2]: 156000 M⁻¹ s⁻¹
Ka [3]: 3.07e+08 M⁻¹
Kd [3]: 3.25 nM
koff [3]: 0.00129 s⁻¹
kon [3]: 396000 M⁻¹ s⁻¹
Ka [4]: 8.16e+07 M⁻¹
Kd [4]: 12.3 nM
koff [4]: 0.00123 s⁻¹
kon [4]: 100000 M⁻¹ s⁻¹
Ka [5]: 3.81e+08 M⁻¹
Kd [5]: 2.62 nM
koff [5]: 0.000654 s⁻¹
kon [5]: 249000 M⁻¹ s⁻¹
Dynamic binding capacity [6]: 16.7 mg human IgG/ml matrix
Ka [7]: ≥ 4e+09 M⁻¹

B2: IgG-Fc-16 (VHH)
VHH: QVQLQESGGGLVQAGGSLRLSCAASGRAVGNYIIGWFRQAPGKEREFVATTTRDGGSTFYADSVKGRFTISRDNAKNTVNLQMNSLEPEDTAVYYCAAKSWSVPLRPTSADFDSWGQGTQVTVSS
notes: also called VHH fragment IgG-Fc-16
Ka [8]: 3.59e+08 M⁻¹
Kd [8]: 2.79 nM
koff [8]: 0.000386 s⁻¹
kon [8]: 138000 M⁻¹ s⁻¹
Ka [1]: 6.17e+07 M⁻¹
Kd [1]: 16.2 nM
koff [1]: 0.000355 s⁻¹
kon [1]: 21900 M⁻¹ s⁻¹
Ka [2]: 4.69e+07 M⁻¹
Kd [2]: 21.3 nM
koff [2]: 0.000849 s⁻¹
kon [2]: 39800 M⁻¹ s⁻¹
Ka [3]: 7.65e+07 M⁻¹
Kd [3]: 13.1 nM
koff [3]: 0.000462 s⁻¹
kon [3]: 35300 M⁻¹ s⁻¹
Ka [4]: 5.89e+08 M⁻¹
Kd [4]: 1.7 nM
koff [4]: 0.000107 s⁻¹
kon [4]: 62900 M⁻¹ s⁻¹
Ka [9]: 1.19e+08 M⁻¹
Kd [9]: 8.41 nM
koff [9]: 0.000198 s⁻¹
kon [9]: 23500 M⁻¹ s⁻¹
Ka [5]: 1.47e+08 M⁻¹
Kd [5]: 6.81 nM
koff [5]: 0.000211 s⁻¹
kon [5]: 31000 M⁻¹ s⁻¹
Binding signal (RU) [10]: 577 RU
Binding signal (RU) [11]: 309 RU
Binding signal (RU) [12]: 410 RU
Binding signal (RU) [13]: 430 RU
Binding signal (RU) [14]: 807 RU
Binding signal (RU) [15]: 795 RU
Binding signal (RU) [16]: 670 RU
Binding signal (RU) [17]: 499 RU
Binding signal (RU) [18]: 257 RU
Binding signal (RU) [19]: 1110 RU
Binding signal (RU) [20]: 2130 RU
Binding signal (RU) [21]: 800 RU
Binding signal (RU) [22]: -1.7 RU
Binding signal (RU) [23]: 811 RU
Binding signal (RU) [24]: 427 RU
Binding signal (RU) [25]: 172 RU
Binding signal (RU) [26]: 1610 RU
Binding signal (RU) [27]: 710 RU
Binding signal (RU) [28]: 512 RU
Binding signal (RU) [29]: 490 RU
Binding signal (RU) [30]: 108 RU
Binding signal (RU) [31]: 239 RU
Binding signal (RU) [32]: 468 RU
Binding signal (RU) [33]: 444 RU
Binding signal (RU) [34]: 431 RU
Binding signal (RU) [35]: 1570 RU
Binding signal (RU) [36]: -2.8 RU
Binding signal (RU) [37]: 638 RU
Binding signal (RU) [38]: 260 RU
Binding signal (RU) [39]: 846 RU
Dynamic binding capacity [6]: 11.5 mg human IgG/ml matrix

B3: IgG-Fc-01 (VHH)
VHH: QVQLQESGGGLVQPGGSLRLSCAASGGTSIRIGSINALAWYRQALGNQRELVAAVTEGGSTNYADFVKGRFTISRDNAQNMMYLQMNSLKPEDTAVYYCNADKVLYSRGGYYSVANDLWGQGTQVTVSS
notes: also called IgG-Fc-1
Ka [1]: 5.76e+08 M⁻¹
Kd [1]: 1.73 nM
koff [1]: 0.000212 s⁻¹
kon [1]: 122000 M⁻¹ s⁻¹
Ka [2]: 2.09e+07 M⁻¹
Kd [2]: 47.8 nM
koff [2]: 0.000272 s⁻¹
kon [2]: 5690 M⁻¹ s⁻¹
Ka [3]: 4.67e+08 M⁻¹
Kd [3]: 2.14 nM
koff [3]: 0.000176 s⁻¹
kon [3]: 82400 M⁻¹ s⁻¹
Ka [4]: 3.32e+09 M⁻¹
Kd [4]: 0.302 nM
koff [4]: 5.91e-05 s⁻¹
kon [4]: 196000 M⁻¹ s⁻¹
Ka [5]: 1.74e+09 M⁻¹
Kd [5]: 0.575 nM
koff [5]: 0.000208 s⁻¹
kon [5]: 361000 M⁻¹ s⁻¹
Dynamic binding capacity [6]: 18.2 mg human IgG/ml matrix
